Laboratory results reported in paper PMC3082182 (The Journal of Cell Biology, 2011).

Target: GST–FL Rngo (Drosophila melanogaster, UniProt Q9VXF9 1-458)
Test: pull-down

- binding result: binds
B1: FL MBP-Rpn10 (natural protein)
chain: MVLESTMICFDNSDFQRNGDYFPTRLIVQRDGINLVCLTKLRSNPENNVGLMTLSNTVEVLATLTSDAGRIFSKMHLVQPKGEINLLTGIRIAHLVLKHRQGKNHKMRIVVFVGSPINHEEGDLVKQAKRLKKEKVNVDIVSFGDHGNNNEILTAFINALNGKDGTGSHLVSVPRGSVLSDALLSSPIIQGEDGMGGAGLGGNVFEFGVDPNEDPELALALRVSMEEQRQRQESEQRRANPDGAPPTGGDAGGGGGVSGSGPGNEESAGAENEANTEEAMLQRALALSTETPEDNLPDFANMTEEEQIAFAMQMSMQDAPDDSVTQQAKRPKTDEANAPMDVDEDYSEVIGDPAFLQSVLENLPGVDPQSEAVRDAVGSLNKDKDKKSDGKDSQKK
